Assays:
[1] = molecular target: T1, S2 subunit of the SARS-CoV-2 spike protein, WA01/2020 strain (SARS-CoV-2, WA01/2020 strain, UniProt P0DTC2 686-1213); assay: dose-response ELISA; antigen taken from the column 'Structural data'
[2] = molecular target: T1, S2 subunit of the SARS-CoV-2 spike …; assay: ELISA on S2 (S2 Binding EC50)
[3] = molecular target: SARS-CoV-2 spike protein, WA1/2020, borne on lentiviral pseudovirus (SARS-CoV-2, WA01/2020 strain, UniProt P0DTC2 14-1273); assay: cell-based or functional assay
[4] = molecular target: SARS-CoV (2003) spike protein borne on lentiviral pseudovirus (SARS-CoV (2003), UniProt P59594 14-1255); assay: cell-based or functional assay
[5] = molecular target: T2, S1 subunit of the SARS-CoV-2 spike protein, WA01/2020 strain (SARS-CoV-2, WA01/2020 strain, UniProt P0DTC2 16-685); assay: ELISA screening, antibody concentration not given
[6] = molecular target: T3, SARS-CoV-2 nucleocapsid (N) protein (SARS-CoV-2, UniProt P0DTC9 1-419); assay: ELISA screening, antibody concentration not given
[7] = molecular target: T4, SARS-CoV-2 spike (S) protein trimer, WA01/2020 strain (SARS-CoV-2, WA01/2020 strain, UniProt P0DTC2 16-1213); assay: dose-response ELISA on coated antigen
[8] = molecular target: T4, SARS-CoV-2 spike (S) protein trimer, …
[9] = molecular target: T1, S2 subunit of the SARS-CoV-2 spike …; assay: ELISA, antibody at 0.1 ug/mL
[10] = molecular target: T2, S1 subunit of the SARS-CoV-2 spike …; assay: ELISA, antibody at 0.1 ug/mL
[11] = molecular target: T3, SARS-CoV-2 nucleocapsid (N) protein; assay: ELISA, antibody at 0.1 ug/mL
[12] = molecular target: T2, S1 subunit of the SARS-CoV-2 spike …; assay: dose-response ELISA on coated antigen
[13] = molecular target: T2, S1 subunit of the SARS-CoV-2 spike …

B1: antibody 1814 (antibody, V domains shown)
VH: QVQLQESGPGLVKPSETLSLTCSVSGGSINYYYWSWIRQTPGQGLEWIGFIYSSGTTNYNPSLKSRVTMSKDTAKKQFSLKLTSVTAADSAVYYCARHSRSCTNGVCQTYYYYALDVWGHGTTVTVSS
VL: QSVLTQPPSVSGAPGQRVTISCTGSGSNIGSGYDVHWYQQLPGRAPKLLIYRNRNRPSGVPDRFSGSKSGTSASLAIAGLQSEDEGDYFCQSYDGRLGESAVFGGGTRLTVL
In the case of B1, the EC50 [1] is reported as 0.077 nM, the EC50 [2] is reported as 0.077 nM and the “Pseudo Neut, WA1/2020 IC50 (pM)” value [3] is reported as 171 pM. For the same binder, the “Pseudo Neut, SARS-CoV 2003 IC50” value [4] was 6.5 nM, the binding result [5] was “no binding (tested: not printed)” and the binding result [6] was “no binding (tested: not printed)”.

B2: antibody 1815 (antibody, V domains shown)
VH: QVQLQESGPGLVKPSETLSLTCSVSGGSINYYYWSWIRKSPGKGLEWIGFIYSSGTTNYNPSLKSRVSMSIGTSKRQFSLKLSSVTAADSAVYYCARHSRSCTNGVCQTYYYYALDVWGHGTTVTVSS
VL: QSVLTQPPSVSGAPGQRVTISCTGSSSNIGAGYDVHWYQQLPGTAPKLLIYANTHRPSGVPDRFSASKSGTSASLAIAGLQAEDEGDYYCQSYDGSLSESAVFGGGTRLTVL
With B2 the EC50 [1] was 0.127 nM, the EC50 [2] was 0.127 nM and the “Pseudo Neut, WA1/2020 IC50 (pM)” value [3] was 10.2 pM. The “Pseudo Neut, SARS-CoV 2003 IC50” value [4] was 26 nM, the binding result [5] was “no binding (tested: not printed)” and the binding result [6] was “no binding (tested: not printed)”.

B3: antibody 1823 (antibody, V domains shown)
VH: EVQLVESGGGLVKPGGSLRLSCVASGFSFGLYTMNWVRQAPGKGLEWVSYISSSTSYKYYADSVKGRVSVSRDNAKNSLYLQLNGLRVEDTAVYYCARDGYCPNGICTYYGMDVWGQGTTVTVSA
VL: EIVMTQSPATLSVSPGERATLSCRASQSVSSNLAWYQQKPGQAPRLLIYGASTRATGIPARFSGSGSGTEFTLTITGLQSEDFAVYYCQQYDKWPPAYSFGQGTKVEIK
B3 was tested, and the EC50 [1] was 0.614 nM, the EC50 [2] was 0.614 nM and the “Pseudo Neut, SARS-CoV 2003 IC50” value [4] was 210 nM.

B4: antibody 1871 (antibody, V domains shown)
VH: EVQLVESGGGLVKPGGSLRLSCVASGFSFSIYSMNWVRQAPGKGLEWVSYISSSSSYKYYADSVKGRFSVSRDNAKNSLYLQLNGLRAEDTAVYYCARDGYCPKGVCTYYGMDVWGQGTTVTVSA
VL: EIVMTQSPATLSVSPGERVTLSCRASQSVRSRLAWFQQKPGQAPRLLIYDASIRATGIPARFSGSGSGTEFTLIISSLQSEDFAVYYCQQYDNWPPAYTFGQGTKLEIK
For B4, the EC50 [1] was 0.103 nM, the EC50 [2] was 0.103 nM and the “Pseudo Neut, WA1/2020 IC50 (pM)” value [3] was 440 pM. The “Pseudo Neut, SARS-CoV 2003 IC50” value [4] was 30 nM, the binding result [5] was “no binding (tested: not printed)” and the binding result [6] was “no binding (tested: not printed)”.

B5: antibody 2019 (antibody, V domains shown)
VH: QVQLVESGGGVVQPGGSLSLSCAASGLSFSSYGMHWVRQAPGKGLEWVAFIRYDVSNKYYADSVKGRFTISRDNSKNTLYLQMNSLRVEDTAVYYCATWAPLDDGMDVWGQGTTVTVSS
VL: SYELTQPPSVSVSPGQTARITCSGDALPKQYAYWYQQKPGQAPVLVIYKDTERPSGIPERFSGSSSGTTVTLTISGVQAEDEADYYCQSGDSSGTFYVVFGGGTKLTVL
In the case of B5, the EC50 [7] is reported as 0.024 nM, the Kd [8] is reported as 0.057 nM and the binding result [9] is reported as “no binding (tested: 0.1 ug/mL)”. B5: no binding (tested: 0.1 ug/mL) [10]; no binding (tested: 0.1 ug/mL) [11].

B6: antibody 2854 (antibody, V domains shown)
VH: QVQLVQSGAEVKKPGSSVKVSCKASGGTFSSYAISWVRQAPGQGLEWMGGIIPIFHTANYAQKFQGRVTITADESTSTTYVELSSLRSEDTAMYYCATLPITIFGEEYSFDNWGQGTLVTVSS
VL: DVVMTQSPLSLPVTLGQPASISCRSSQSLVHSDGNTYLSWFQQRPGQSPRRLIYKVSDRDSGVPDRFSGSGSGTDFTLKISRVEAEDVGIYYCMQGTHWPPLTFGGGTKVEIK
With B6 the EC50 [7] was 0.152 nM, the Kd [8] was 0.112 nM and the binding result [9] was “no binding (tested: 0.1 ug/mL)”. B6: no binding (tested: 0.1 ug/mL) [10]; no binding (tested: 0.1 ug/mL) [11].

B7: antibody 2866 (antibody, V domains shown)
VH: QVQLVQSGAEVKKPGSSVKVSCKASGGTFSSYSISWVRQAPGQGLEWMGGLAPIFHTPNYAQKFQGRVTITADESTSTAYMELSSLRSEDTAVYYCARVAGAGWGVYGAFDYWGQGTLVTVSS
VL: not shown
In the case of B7, the EC50 [7] is reported as 0.182 nM, the Kd [8] is reported as 0.154 nM and the binding result [9] is reported as “no binding (tested: 0.1 ug/mL)”. B7: no binding (tested: 0.1 ug/mL) [10]; no binding (tested: 0.1 ug/mL) [11].

B8: antibody 2025 (antibody, V domains shown)
VH: QVQLVQSGAEVKKPGASVKVSCKVSGYTLIELSMHWVRQAPGKGLEWMGGFDPEDVETIYAQKFQGRVTMTEDTSTDTAYMELSSLRSEDTAVYYCATAYAVQWRGMIGYWGQGTLVTVSS
VL: QSALTQPASVSGSPGQSITISCTGTSSDVGSYNLVSWYQQHPGKAPKLMIYEVSKRPSGVSNRFSGSKSGNTASLTISGLQAEDEADYYCSSYAGSSTFSYVFGTGTKVTVL
B8: no binding (tested: 0.1 ug/mL) [9]; no binding (tested: 0.1 ug/mL) [11].

B9: antibody 937 (antibody, V domains shown)
VH: EVQLVESGGGLVQPGRSLRLSCAASGFTFDDYAMHWVRQAPGKGLEWVSGISWNSGSIGYADSVKGRFTISRDNAKNSLYLQMNSLKPEDTALYYCAKSTTSCYNGSQCPTKRPKPLESWGQGTLVIVSA
VL: DIQMTQSPSTLSAFVGDRVTITCRASQSINNWLAWYQQKPGEVPKLLIYKASSLENGVPSRFSGSGFGTEFTLTISSLQPDDFAIYYCQQYYSHSHTFGQGTKLEIK
B9: no binding (tested: 0.1 ug/mL) [9]; no binding (tested: 0.1 ug/mL) [11].

B10: antibody 1238 (antibody, V domains shown)
VH: QVQLVQSGSELKKPGASVKVSCKASGYTFTNYGMNWVRQAPGQGLEWMGWINTNTGNPTNAQGFTGRFVFSLDTSVSTAYLQINSLKGEDTAVYYCARVADTGEMDVWGQGTTVTVSS
VL: SYELTQPPSVSVSPGQTARITCSGDALPKQYAYWYQQKPGQAPVLVIYKDSERPSGIPERFSGSSSGTTVTLTISGVQAEDEADYYCQSADSSGSYNWVFGGGTKLTIL
In the case of B10, the EC50 [7] is reported as 0.069 nM, the EC50 [12] is reported as 0.028 nM and the Kd [13] is reported as 0.027 nM. B10: no binding (tested: 0.1 ug/mL) [9]; no binding (tested: 0.1 ug/mL) [11].

B11: antibody 2788 (antibody, V domains shown)
VH: QVQLVQSGAEVKKPGASVKVSCKVSGYTLIELSMHWVRQAPGKGLEWMGGFDPEGAETIYAQKFQGRVTMTEDTSTDTAYMELSSLRSDDTAVYYCATGPAVFAANWFDPWGQGTLVTVSS
VL: QSALTQPPSASGSPGQSVTISCTGTSSDIGNYNNVSWYQQHPGKAPKLMIYDVIKRPSGVPDRFSGSKSGNTASLTVSGLQAEDEADYYCSSYAGKSYVFGTGTKVTVL
For B11, the EC50 [7] was 0.021 nM, the EC50 [12] was 0.058 nM and the binding result [9] was “no binding (tested: 0.1 ug/mL)”. B11: no binding (tested: 0.1 ug/mL) [11].

B12: antibody 1671 (antibody, V domains shown)
VH: EVQLVESGGGLVKPGGSLRLSCAASGFTFSTYNMNWVRQAPGKGLEWVSSISSNSNYIYYADSMKGRFTISRDNAKNSLYLQMNSLRAEDTAVYYCARDMDPLPYFDWLLYAFDVWGQGTMVTVSS
VL: EIVLTQSPGTLSLSPGERATLSCRASQSVSGSYLAWYQQKPGQAPRLLIYGASSRATGIPDRFSGSGSGTDFTLTISRLEPEDFAVYYCQQYGSPIFTFGPGTKVDIK
B12 showed a Kd [13] of 0.0506 nM.

B13: antibody 2598 (antibody, V domains shown)
VH: QVQLQESGPGLVKPSGTLSLTCVVSGGSISSSNWWSWVRQPPGKGLEWIGETFHSGSFNYNPSLKSRVTISVDKSKNQFSLKLSSVTAADTAIYYCATTRVGYEGHFYYYGMDVWGQGTTVTVSS
VL: DIQMTQSPSSVSASVGDRVTITCRASQGISSWLAWYQQKPGKAPKLLIYAASSLQSGVPSRFSGSGSGTDFTLTISSLQPEDFATYYCQQANRFPWTFGQGTKVEIK
In the case of B13, the EC50 [7] is reported as 0.043 nM, the EC50 [12] is reported as 0.084 nM and the Kd [13] is reported as 0.00823 nM.

B14: antibody 2646 (antibody, V domains shown)
VH: QVQLVQSGAEVKKPGASVKVSCKVSGYTLTELSIHWVRQAPGKGLEWMGGFDPEDAETIYAQKFQGRVTMTEDTSTDTAYMELSSLRSEDTAVYYCATATAVAGTVFNYQYHYGLDFWGQGTTVTVSS
VL: not shown
With B14 the EC50 [7] was 0.024 nM, the EC50 [12] was 0.033 nM and the Kd [13] was 0.00296 nM.

— US20230382979A1 (ADAPTIVE BIOTECHNOLOGIES, published 2023)
